Experimental data published in the nanobody polyreactivity screen of Harvey et al. (2022).

assay: yeast display, Sf9 membrane polyspecificity reagent, FACS + sequencing; frameworks hold sequencing errors
Summary of the method: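 Synthetic nanobody libraries on Saccharomyces cerevisiae BJ5465 were galactose-induced for 36–48 hours, stained 1 hour at 4 °C with 10% biotinylated, detergent-solubilized Sf9 membrane reagent and enriched on streptavidin microbeads. FACS then separated cells into low and high (top ~1%) gates by anti-HA (expression) and streptavidin (reagent binding) fluorescence. Genes were colony-PCR amplified, MiSeq 2 × 250 sequenced and CDR-length filtered. A clone's polyreactivity label is that of its gate of origin.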

Q: With “QGQRVESGGGLVQAGGSLRLSCAGSGSTCVGYTMGWYRQAPGKERELVAAITSSDGSTYYADSVKGRFTISRDNAKNTVYLQMNSQKPEDTAVYYCAQTTRYPRGYGYWGQGTQVTVSS” as the sequence, how does the “polyreactivity (PSR sort gate)” value read?
A: Its value is “low polyreactivity”.

Q: Which “polyreactivity (PSR sort gate)” value does the source give for “QIQLVESGGGLVQAGGILRISCAASGRTFGSNTMGWSRQAPGKERELVAAISGTGTSTYYADSVKGRFTISRDNAKNTVYLQMNILKPEDTAVFYCAAGWYKYLFQPHDYWGQGTQVTVSS” here?
A: The value was “low polyreactivity”.

Q: For “QIQLVESGGGLVQAGGSLRLSCAASGFTFYWYAMGWYRQAPGKEREFVAAIDQSGGSTYYADSVKGRFTISRDNAKNTVYLQMNSLKPEDTAVYYCAARYILWDGDSWTEFDYWGQGTQVTVSS”, which “polyreactivity (PSR sort gate)” value is on record?
A: The value was “low polyreactivity”.

Q: Which “polyreactivity (PSR sort gate)” value does the source give for “QLHLVESGGGLVQAGGSLRLSCAASGIIFWYNDMGWYRQAPGKESELVAAISTGGSTNYADSVKGRFTISRDNAKNTVYLQMNSLKPEDTAVYYCAGDWHRAYGGYDYWGEGTQVTVSS” here?
A: Its value is “low polyreactivity”.

Q: With “QLKLEESGGGLVQAGGSLRLSCAASGITFPWYAMGWYRQAPGKERELVAAINRAGNTNYADSVKGRFTISRDNAKNTVYLQRNSLKTEDTAVYYCAARWRYKYTLGYWGQGTQVTVSS” as the sequence, how does the “polyreactivity (PSR sort gate)” value read?
A: Its value is “high polyreactivity”.

Q: Which “polyreactivity (PSR sort gate)” value does the source give for “QLQLEESGGGFVQAGGSLRISCAASGAIFLSYAMGWYRQAAAKEMEFVAGISYSGGTTYYADSVKGRFTISRDNAKNTVYLQMNSLKQEVTAVYYCAKRTAVWTSGGYRKRDYWGQATQVTVSS” here?
A: The value was “high polyreactivity”.

Q: With “QLQLEESGGGLVQAGGSLRLSCAASGRTFESYGMGLYRQATGKERELVAAISHNADSTYADSVKGRFTISRDNAKNTVYLQMNSLKSEDTAVYYCNAETPVRSDYWGQGTQVTVSS” as the sequence, how does the “polyreactivity (PSR sort gate)” value read?
A: The value was “low polyreactivity”.

Q: For “QLQLEESGRGLVQAGGSLRLSCAASGSIFYSNTMGWYRQAPGKERELVAAISTSDTSTYYADSVKGRFTISREKAKNTVYLQMNSLKPEDTAVYYCNAVGSIVLYGYWGQGTQVTVSS”, which “polyreactivity (PSR sort gate)” value is on record?
A: The value was “low polyreactivity”.

Q: For “QLQLGESGGGLVQAGGSLRLSCAASGSTFIVYAMGWYRQAPGKVRELVAAISSDGSTYYADSVKGRFTISRDNAKNTVYLQMNRLKPEYTAVYYCAAYVYDADTGYDYWGQGTQVTVSS”, which “polyreactivity (PSR sort gate)” value is on record?
A: Its value is “low polyreactivity”.

Q: Which “polyreactivity (PSR sort gate)” value does the source give for “QLQLHESGGGLVQAGGCLSCTASGTIFGQGDMGWYRQAPGKERELVATINDGASTYYADSVKGRFTISRDKAKNTVYLKKNSLKPDDNAVYYCAVFTDITTYFGYWGQGTQVTVSS” here?
A: The value was “low polyreactivity”.

Q: Which “polyreactivity (PSR sort gate)” value does the source give for “QLQLLESAVGLVQAGGSLRLSCASSGRIFTQNTMGWYRQAPAKESELVAAINYSGGRTNYADSVKGRFTISRDNAKNTVYLQMNSLKPEDTAVYYCAAGYRRATYGYWGQGTQVTVSS” here?
A: The value was “high polyreactivity”.

Q: Which “polyreactivity (PSR sort gate)” value does the source give for “QLQLLESGGGIVQAGGILRLSCAASGFTFAHYAMGWYRQAPGIERELVAAITSRGGSTYYADSVKGRFTISRDNAKNPVYLQMNSLKPEDTAVYYCAAKTLLFIFGYWGQGTHVTVSS” here?
A: The value was “high polyreactivity”.

Q: For “QLQLQEGGGGLVQAGGSLRLSCAASGYISYGDVMGSYRQAPGEERELVASIGLDATTNYADSVKGRFNISRDNAKITVYLQMNSLKPEDTAVYYCAAVVGSGVLCGYWGQGTQMTVSS”, which “polyreactivity (PSR sort gate)” value is on record?
A: Its value is “high polyreactivity”.

Q: With “QLQLQESGGGLVQAGGSLRLSCAWSGTIAFTRDLGSYRQAPGKDREFVASIDRGASTYYADSVKGRFTISRDNAKNTVYLQMNSLKPEDTAVYYRAVIAPFYSSFAYWGQGTQVTVSS” as the sequence, how does the “polyreactivity (PSR sort gate)” value read?
A: The value was “high polyreactivity”.

Q: For “QLQLQESGGGLVQAGGSLRLSSAASGTISPLPAMGLYSQATGKERELVPGIDTGAITNYADSVKGRFTISRDNAKHTVYLQMNSLKPEDTAVYYCAVFPAAYDYYERYYTEWGQGTQVTVSS”, which “polyreactivity (PSR sort gate)” value is on record?
A: The value was “high polyreactivity”.

Q: For “QLQLQESGGLVQAGGSLRLSCAASGSISGRNVIGCYRQAPGKEREYVASITDGSSTNYADSVKGRFTISRDNAKNTVYLQMNSLKPKDTAVYYCAAYAQRAKSFGYWGRGTQVTVSS”, which “polyreactivity (PSR sort gate)” value is on record?
A: The value was “low polyreactivity”.

Q: For “QLQLVESFTGLVQAGGSLRLSCAASVPTFASYAMGWSRQAPGKERELVAVITRGVRTYYADSVKGRITISRDNAMNTVYLQMNSLKPEDTAVYDCAKERYNANYDTSLYDYWGQGTQGTVSS”, which “polyreactivity (PSR sort gate)” value is on record?
A: The value was “low polyreactivity”.

Q: Which “polyreactivity (PSR sort gate)” value does the source give for “QLQLVESGACLVQAGGSLRLSCAASGRIFTSYSMGWYRHAPGKEREMVAAINRGADTYYADSVKGRFTISRDNAKNTVYLQMNSVKPEDNAVYYCNAADAVSDYPDFQIYDYWGQGTQVTVSS” here?
A: The value was “low polyreactivity”.

Q: With “QLQLVESGAGRVQAGGSLRLRCAAAGSILRDNAMVWYRQAPWKEREFVADIRGSDDTTYYADSVKGRFTISRDNGKNSVYLQMNSLKPEDTAVYYSNRDDAWQEYDYWGQGTQVTVSS” as the sequence, how does the “polyreactivity (PSR sort gate)” value read?
A: The value was “low polyreactivity”.

Q: Which “polyreactivity (PSR sort gate)” value does the source give for “QLQLVESGGGLDQAGGSLRLSCAASGFTFVSYAMGWYRQAPGKERELVAVISYRAGSTYYADSVKGRFTISRDNAKNTVYLQMYSLKPEDTAVYYCATDRYSRRNDYWGQGTQVTVSS” here?
A: The value was “high polyreactivity”.

Q: For “QLQLVESGGGLFQAGGSLRISCAPSGRIFKLNAMGWYRQAPGKEMELVAAINSGTRTYYADSVKGRFTISSYNAKNTVYLQLNSLKPEDTAVYYCAAEGVWWYSRYDYWGQGTQVTVSS”, which “polyreactivity (PSR sort gate)” value is on record?
A: The value was “high polyreactivity”.

Q: Which “polyreactivity (PSR sort gate)” value does the source give for “QLQLVESGGGLVKAGGSLRLSCAASGSTFGGNAMGWYRQAPGKERELVASISSSGGRTYYADSVKGRFTISRDNAKNTVYLQMNSLTPEDTAVYYCARRYYYQYRYDYWGQGTQVTVSS” here?
A: The value was “high polyreactivity”.

Q: Which “polyreactivity (PSR sort gate)” value does the source give for “QLQLVESGGGLVPAGGSLRLSCAASGIIFTSNTMGWYRQAPGKEREFVASINWNGSSTYADSVKGRFTISRDNGKNTVYLEMNSLKPEDTAVYYCNADYISNSVQFSLYDYWGQGTQVTVSS” here?
A: Its value is “low polyreactivity”.

Q: Which “polyreactivity (PSR sort gate)” value does the source give for “QLQLVESGGGLVQAGGRLRLSCAASGRTFYDYAMGWYRQSPGKERELVAAIDNGGSTYYADSVKGRFTISRDNAKNTVYLQKNSLKPEDTAVYYCNADGATVWSLEYCGQGTQVTVSS” here?
A: Its value is “low polyreactivity”.

Q: For “QLQLVESGGGLVQAGGRLRLTCAASGSIFFGNVMGLYIQAPGKERELVAVISWSGGTTYYADSVKGRFTISRDNAKNTVYLQMNSLKTEDTAVYYCNARYLRRGDYWGQGTQVTVSS”, which “polyreactivity (PSR sort gate)” value is on record?
A: Its value is “low polyreactivity”.

Q: Which “polyreactivity (PSR sort gate)” value does the source give for “QLQLVESGGGLVQAGGSLRISCAASGFIFNGYAMGWSRQAPGKERELVAAITADVGDTYYADSVKGRFTLSRDNAKYTVYLQLNSLKPDDPAVYYCAADQAEWLDPDDYWGQGTQVTVSS” here?
A: Its value is “low polyreactivity”.

Q: With “QLQLVESGGGLVQAGGSLRLRCAASGNTFYQYAMGWYIQAPGQQREMVAAISSGGRTNYADSVKGRFTISRDNAKNNVYLQMNSLKPEDTAVYYFAADVGYFKSDYWGQGTQVTVSS” as the sequence, how does the “polyreactivity (PSR sort gate)” value read?
A: The value was “low polyreactivity”.

Q: Which “polyreactivity (PSR sort gate)” value does the source give for “QLQLVESGGGLVQAGGSLRLSCAASGFTFRCNAMGWYRQAPGKEMELVAGITSGGSTNYADSVKGRFTISRDNAKNTVYLQMNSLKPEDTAVYYCNAAWYRWKQRYDYWGQGTQVTVSS” here?
A: The value was “low polyreactivity”.

Q: With “QLQLVESGGGLVQAGGSLRLSCAASGGIFPYYAMGWYRQAPGKEMELVAAISRSGGITYYADSVKGRFTISRDNAKNTVYLQMNSLKPEDTAVYYCAALSRWRYKRYDYWGQGTQVTVSS” as the sequence, how does the “polyreactivity (PSR sort gate)” value read?
A: The value was “high polyreactivity”.

Q: With “QLQLVESGGGLVQAGGSLRLSCAASGIIFRWYAMGFYRQAPGKERELVAAITSSGGRTYYADSVKGRFTISRDNAKNTVYLPMNILKPEDTAVYYCAASYYIVGCDPYDYWGQGTQVTVSS” as the sequence, how does the “polyreactivity (PSR sort gate)” value read?
A: The value was “high polyreactivity”.

Q: Which “polyreactivity (PSR sort gate)” value does the source give for “QLQLVESGGGLVQAGGSLRLSCAASGITFGANTMGWYRQAPGTERELVAAITISGGITHYADSVKGRFTISRDNAKNTVYLQMNSLKPEDTAVYYCAAGAYWRLYPYRQRNGGRMYYWGQGTQVTVSS” here?
A: The value was “low polyreactivity”.

Q: Which “polyreactivity (PSR sort gate)” value does the source give for “QLQLVESGGGLVQAGGSLRLSCAASGITFYVYAMGCYRQAPGKERELVAAISTSGGSTYYADSVKGRFTISRDNAKNTVYFQMNSLKPEDTAVYYCAAEELRYGLYEYDYWGQGTQVTVSS” here?
A: Its value is “high polyreactivity”.

Q: With “QLQLVESGGGLVQAGGSLRLSCAASGLILPYYAMGWYRQAPGKERALVAAISRTGGRTSYADSVKGRFTISRDNAKNTVYLQMNSLKPEDTAVYYCAARYGRYYGYNYWGQGTQVTVSS” as the sequence, how does the “polyreactivity (PSR sort gate)” value read?
A: Its value is “high polyreactivity”.

Q: With “QLQLVESGGGLVQAGGSLRLSCAASGLILYSYAMGRYRQAPGKERELVADISSGGITNYADSVKGRFTISRDNAKNTVYLQMNSLKPADTAVNYCAADTRPVNYILYEYWGQGTQVTVSS” as the sequence, how does the “polyreactivity (PSR sort gate)” value read?
A: Its value is “low polyreactivity”.

Q: Which “polyreactivity (PSR sort gate)” value does the source give for “QLQLVESGGGLVQAGGSLRLSCAASGLTFSYYAMGSYRQAPGKERELVAAITSSGGNTYYADSVKGRFTISRDNANNTVYLQMNSMKPEDTAVYYCAAERYQSFCYGKRPRRPRYDYWGLGTQVTVSS” here?
A: Its value is “high polyreactivity”.

Q: For “QLQLVESGGGLVQAGGSLRLSCAASGLTFYVYAMGWYRQAPCKERELVAAISSGGRTYYADSVKGRFTISRDNAKNTVYLQMNSLKPEDTAVYYCAAVRHRNYGYWGQGTQVTVSS”, which “polyreactivity (PSR sort gate)” value is on record?
A: Its value is “high polyreactivity”.

Q: Which “polyreactivity (PSR sort gate)” value does the source give for “QLQLVESGGGLVQAGGSLRLSCAASGLTYEGYAMGWYRQAPGKERELVAAITGSGSTTYYADSVKGRFTISRDNAKNTVYLQMNSLKPEDSAVYYCAADVSYKLYWGQGTQVTVSS” here?
A: The value was “low polyreactivity”.

Q: Which “polyreactivity (PSR sort gate)” value does the source give for “QLQLVESGGGLVQAGGSLRLSCAASGRIFRRYTMRSYRQAPGKERELVAAITWKGGRTSYADSVKGRFTISRDNANNTVYLQMNSLKPQDTAVYYCAAECPSRYHTFEFWGQGTQVTVSS” here?
A: Its value is “high polyreactivity”.

Q: For “QLQLVESGGGLVQAGGSLRLSCAASGRIFTGNAMGWYRQAPGKERELVAAISYSGGSTYYADSVKGRFTISRDNAKNTVYLQMNSLKPEDTAVYYCAAAGRYLRYGYWGQGTQVTVSS”, which “polyreactivity (PSR sort gate)” value is on record?
A: Its value is “high polyreactivity”.

Q: With “QLQLVESGGGLVQAGGSLRLSCAASGRIFWPNALGWYRQAPGKEREFVAAIRWSSDRTYYADSVKGRFTISRDNAKNTVYLQRNSLKPEDTAVYYCNAVRYVISKYDYWGQGTQVTVSS” as the sequence, how does the “polyreactivity (PSR sort gate)” value read?
A: Its value is “high polyreactivity”.

Q: For “QLQLVESGGGLVQAGGSLRLSCAASGRNFGYNAMGWYRPAPGKERELVAVINIDGSTNYADSVKGRFTISRDNAKNTVYLQLNSLNPEDTAVYYCAARYWKSYRNGGFFGFTYYYWGQGTQVTVSS”, which “polyreactivity (PSR sort gate)” value is on record?
A: The value was “high polyreactivity”.
